B1: GGAAGAUCUCGAUCUCGAAGC UUCAAGAGA GCUUCGAGAUCGAGAUCUUCC (nucleic acid)
chain 1: GGAAGATCTCGATCTCGAAGC
chain 2: GCUUCGAGAUCGAGAUCUUCC
chain 3: GGAAGAUCUCGAUCUCGAAGCUUCAAGAGAGCUUCGAGAUCGAGAUCUUCC
modifications: expressed or natural sequence; chain 1: target site or template, no part of the molecule
notes: shRNA targeting SRSF1
B2: GCAGAGGAUCACCACGCUAUU UUCAAGAGA AAUAGCGUGGUGAUCCUCUGC (nucleic acid)
chain 1: GCAGAGGATCACCACGCTATT
chain 2: AAUAGCGUGGUGAUCCUCUGC
chain 3: GCAGAGGAUCACCACGCUAUUUUCAAGAGAAAUAGCGUGGUGAUCCUCUGC
modifications: expressed or natural sequence; chain 1: target site or template, no part of the molecule
notes: shRNA targeting SRSF1
B3: GGGCCCAGAAGUCCAAGUUAU UUCAAGAGA AUAACUUGGACUUCUGGGCCC (nucleic acid)
chain 1: GGGCCCAGAAGTCCAAGTTAT
chain 2: AUAACUUGGACUUCUGGGCCC
chain 3: GGGCCCAGAAGUCCAAGUUAUUUCAAGAGAAUAACUUGGACUUCUGGGCCC
modifications: expressed or natural sequence; chain 1: target site or template, no part of the molecule
notes: shRNA targeting SRSF1

System: SRSF1
Assay: Western immunoblotting of SRSF1 in human cells co-transfected with scAAV plasmids and C9ORF72-repeat reporter
Format: cell-based
Conditions: co-transfected with sense or antisense C9ORF72-repeat reporter, FIG. 4

Depletion of SRSF1, efficient depletion of SRSF1:
B1, B2, B3

— patent US20260041793A1, “VIRAL VECTOR” (University of Sheffield, priority 2022, published 2026)
